Measurements: paper PMC9054013, “FCHO controls AP2’s initiating role in endocytosis through a PtdIns(4,5)P2-dependent switch” (Science Advances, 2022)
Each block holds one substance with its values, some of them ahead of it.

Experiments:
[1] = target: GST-FCHO1 linker wt (N123C) (residues 316 to 444) (human) (UniProt O14526); assay: BLI; GST-FCHO1 or GST-FCHO2 linker loaded on anti-GST biosensors, blocked with GST-ARRS control; AP2 core in solution (twofold dilutions, 13.5 to 0.8 and 10.0 to 0.2 μM); 25°C; 0.1% NP-40, BSA 1 mg/ml; equilibrium analysis; near-physiological conditions
Sequence of GST-FCHO1 linker wt (N123C) (residues 316 to 444) (human) (O14526 316-444, stated change not applied): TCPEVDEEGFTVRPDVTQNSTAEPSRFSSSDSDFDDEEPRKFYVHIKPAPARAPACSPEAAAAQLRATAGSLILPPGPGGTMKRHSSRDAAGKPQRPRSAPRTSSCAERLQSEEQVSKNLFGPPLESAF

[2] = target: GST-FCHO2 linker wt (residues 314 to 444) (human) (UniProt Q0JRZ9); assay: as above
Sequence of GST-FCHO2 linker wt (residues 314 to 444) (human) (Q0JRZ9 314-444): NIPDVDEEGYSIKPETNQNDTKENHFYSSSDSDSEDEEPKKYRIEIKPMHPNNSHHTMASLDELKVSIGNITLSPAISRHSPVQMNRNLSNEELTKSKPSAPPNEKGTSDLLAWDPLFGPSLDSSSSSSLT

[3] = target: GST-TGN38 (pGEX4T2 linker TGN38); assay: BLI; GST-TGN38 loaded on anti-GST biosensors; AP2 core (3.3 to 0.1 μM) or AP2 FCHO2 chimera (2.6 to 0.9 μM) in solution; physiological buffer; association 20 min, dissociation 25 min
Sequence of GST-TGN38 (pGEX4T2 linker TGN38) (Q9UJY5 other isoform, or with tags, fused parts or gaps): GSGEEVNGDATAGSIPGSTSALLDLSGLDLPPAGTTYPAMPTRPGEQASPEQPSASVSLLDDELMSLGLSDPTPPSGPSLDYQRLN

[4] = target: AP2 α-appendage (residues 695 to 938) (UniProt P17427); assay: ITC; α-appendage or β2-appendage with C block peptides; 100 mM tris pH 7.4, 150 mM NaCl, 0.25 mM TCEP; 12°C; peptides 1 to 5 mM titrated
Sequence of AP2 α-appendage (residues 695 to 938) (P17427 695-938): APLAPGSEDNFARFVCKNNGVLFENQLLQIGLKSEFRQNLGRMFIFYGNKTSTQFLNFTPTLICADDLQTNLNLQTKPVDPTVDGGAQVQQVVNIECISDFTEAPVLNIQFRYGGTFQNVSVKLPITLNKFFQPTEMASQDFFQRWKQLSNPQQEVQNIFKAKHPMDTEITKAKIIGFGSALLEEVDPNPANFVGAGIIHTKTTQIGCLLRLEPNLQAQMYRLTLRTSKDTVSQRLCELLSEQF

[5] = target: Cμ2 (μ2 residues 160 to 435) (UniProt P84092); assay: ITC; Cμ2 with FCHO2 constructs or peptides; 100 mM tris pH 7.4, 150 mM NaCl, 0.25 mM TCEP; 12°C; Nano ITC
Sequence of Cμ2 (μ2 residues 160 to 435) (P84092 160-435): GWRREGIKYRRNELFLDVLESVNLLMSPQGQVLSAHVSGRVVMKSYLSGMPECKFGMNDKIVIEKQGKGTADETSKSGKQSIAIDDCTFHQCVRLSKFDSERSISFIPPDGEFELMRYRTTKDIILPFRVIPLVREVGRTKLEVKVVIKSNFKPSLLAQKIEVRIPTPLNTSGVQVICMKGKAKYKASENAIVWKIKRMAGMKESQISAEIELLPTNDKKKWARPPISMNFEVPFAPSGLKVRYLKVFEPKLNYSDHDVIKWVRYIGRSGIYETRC

Kd [1]: 8.5 µM | Kd [2]: 9.8 µM
Substance: AP2 core (recombinant) (from UniProt P63010 1-591; P84092 1-435; P62743 1-142) (complex)

fold tighter binding than AP2 core [3]: 3 fold
Substance: AP2:μ2FCHO2-N1+N2+N3 chimeric AP2 core (from UniProt P62743 1-142; P63010 1-591; Q0JRZ9-1 314-444) (complex)

Kd [4]: 50 µM
Substance: FCHO1 C peptide (residues 426 to 448)

fold reduction of binding against N1+N2 [5]: 5 fold
Substance: FCHO2 N1 alone (ITC) (from UniProt Q0JRZ9-1 314-340) (domain or fragment)

Kd [5]: 25 µM
Substance: FCHO2-N1+N2 (ITC) (from UniProt Q0JRZ9-1 314-356) (domain or fragment)
